Assay: yeast display, Sf9 membrane polyspecificity reagent, FACS + sequencing; frameworks hold sequencing errors
Outline: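 A synthetic nanobody library was expressed on Saccharomyces cerevisiae BJ5465 by galactose induction for 36–48 hours. The library was stained for 1 hour at 4 °C with 10% biotinylated, detergent-solubilized Sf9 membrane reagent and enriched with streptavidin microbeads before FACS. Low and high (top ~1%) gates were set on anti-HA fluorescence for expression and streptavidin fluorescence for reagent binding, and each polyreactivity label reflects the gate of origin.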

Sequence	polyreactivity (PSR sort gate)
QVQLVESGGGLVQAAGILRLSCAASGSIFVTNAKGWYRQAPGKERELVAAISSGGNTNYADSVKGRFTISRDNAKNTVYLQINSLKPVDTAVYYCAKDPDKVDSVDMDYWGHGTQVTVSS	low polyreactivity
QVQLVESGGGLVQAGGSLRLSCAASGIIFYFYTMGWYRQAPGKERELVAAISSSGGRTFYADSVKGRFTISRDNAKNTVYLQMNSLKPEDTAVYYCAAAHTREYYWGQGTQVTVSS	high polyreactivity
QVQLVESGGGLVQAGGSLRLSCAASGRIFRYYAMGWYRQATGKQRELVAAISSGVGNTYYADSVKGRFTISRDNAKNTVYLQMNSLKPEDTAVYYCNAKWRKFGTVRYDYWGQGTQVTVSS	high polyreactivity
QVQLVESGGGLVQAGGSLRLSCAASGFIFWRYAMGWYRQAPGKERELVATITSSGGTTHYADSVKGRFTISRDNAKNTVYLQMNSLKPEDTAVYYCATRKGVGSLYYSRNYWGQGTQVTVSS	high polyreactivity
QEQLQESGGGLVQAGDSPRLSCAESGYISARTGMGSYRQAPGKEREFVAGIASGTSTHYADSVKGRFTISRDNAKNAVYLQMNSLKPEDTAVYYCAKDYRYIFIYPYGWTRYDYWGQGTQVTVSS	low polyreactivity
QVQLVESGGGLVHAGGSLRLSCAASGRTFNGNAMGWYRQAPGKERELVAVITGSGGSTYYADSVKGRYTISRDNAKNTVYLQMNSLKPEDTAVYYCNKKVQRRSWYDYWGQGTQVTVSS	low polyreactivity
QVQLVESGGGLVQAGGSLRLSCAASGFIFWLYALGWYRKAPGKERELVASINWSGGDTYYADSVKGRFTISRDNPKNTVYLQLNSLKPEDTAVYYCNAQVYRYRIGYDYWGQGPQVTVSS	low polyreactivity
QVQLVESGGGLVQAGGSLRLSCAASGSTLIGYAMGWYRQAPGKERELVAVINRSGGRTYYADSVKGRFTISRDNSKNTVYLQMNSLKPEDTAVYYCAARPTALSYDSWGQGTQVTVSS	high polyreactivity
QVQLVESGGGLVQAGGSLRLSCAASGFTFPNAMGWYRQAPGKERELVATISSSGGSTYYADSVKGRFTISRDNAKNTVYLQMNSLKPEDTAVYYCAARTRQYWIYRAYRDDYWGQGTQVTVSS	low polyreactivity
QVQLVESGGGLVQAGGSLRLSCADSGSTFYRYAMGWYRPAPGKERELVAAISKRGGSTYYADSVKGRFTISRDNAKNTVYLQMNSLKPEDTAVYYCAADPFHYGGGDDYWGQGTQVTVSS	high polyreactivity
QVQLVESGGGIVEAGVSLRISCAASGSIFTKNAMVWYRPAPGKARELVAAISSGGSTYYADSEKGRFSISRDNAKNTVYLQMNSLKPEDTAVYYCARGASFYLKFYYWGQGTQVTVSS	high polyreactivity
QVQLVESGGGLVQAGGSLRLSCAASGISFWDYAMGWYRQAPGKERELVAAISSGGSTYYADSVKGRFTISRDNAKNTVYLQMNSLKPEDTAVFYCNAEQRYYRKVKGNYWGQGTQVSVSS	high polyreactivity
QVQLVESGGGLVQAGGSLRLSCAASGFIFSKYAMGWYRQAPGKERELVAAITFSGGSTYYADSVKGRFTISRDNAKNTVYLQMNSLKPEDTAVYYCNAEGSYPDVSPVLGYDYWGQGTQVTVSS	low polyreactivity
QVQLVESGGGLVQAGGSLRLSCAASGRIFHVYAMGWYRQAPGKERELVAAISSGDRTYYADSVNGRFIISRDNAKNTVYLQMNSLKPEDTAVYYCWLYPAAVSNYWGQGTQVTVSS	low polyreactivity
QVQLVESGGGLVQAGGSLRLSCAASGLTVKWNAMGWYREAPGKETELFASITSGGSTNYADSVKGRFTISRDNAKNTVYLQMNSLKPEDTAFYYCNAEYYLFKRPYSYYYWGQGTQVTVSS	low polyreactivity
QVQLVESGGGLVQAGGSLRLSCAASGSIFQPNGMGWYRQAPGQEREFVARIDRSGGSTYYADSVKGRFTISRDNAKNTVYLQMNSLKPEDTAVYYCHAAGEVIGYDYWGQGTQVTVSS	low polyreactivity
QVQLVESGGALVQAGGSLRLSCAASGFTFPPSARGWYRQAPGKERELVARITWSGDRTYYADSVKGRFTISRDNAKNTVYLQMNSLKPEDTAVYYCAARRLPRKERKLYYWGQGTQVTVSS	high polyreactivity
